Measurements published in US20240374671A1 (ACCELERON PHARMA, published 2024).
Where a chain is given by its changes, count along the chain named.

T1: monomeric hActRIIB (human, UniProt Q13705 25-130, limits assumed)
T1 construct: also called ActRIIB MONOMER; ActRIIB monomer
T1 sequence: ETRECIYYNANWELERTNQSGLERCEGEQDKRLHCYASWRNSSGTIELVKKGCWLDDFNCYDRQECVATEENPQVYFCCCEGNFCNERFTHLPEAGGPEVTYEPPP

T2: dimeric hActRIIB (human, UniProt Q13705 25-130)
T2 construct: also called ActRIIB DIMER; ActRIIB dimer
T2 sequence: T1 sequence

B1: D01 (antibody, human IgG1, kappa, V domains shown)
VH: QVQLQESGPGLVKPSQTLSLTCTVSGGSIESGGYYWSWIRQHPGKGLEWIGGIYGSGSTYYNPSLKSRVTISVDTSKNQFSLKLSSVTAADTAVYYCARDSGIGYSYASSHGYYYYMDVWGKGTTVTVSS
VL: EIVLTQSPATLSVSPGERATLSCRASQSVGSNLAWYQQKPGQAPRLLIYGASTRATGIPARFSGSGSGTEFTLTISSLQSEDFAVYYCQQYFHFPLTFGGGTKVEIKR
notes: Human IgG
B2: B01 (antibody, V domains shown)
VH: B1 VH with E30L, G55Y, S58K
VL: EIVLTQSPATLSVSPGERATLSCRASQSVGSNLAWYQQKPGQAPRLLIYGASTRATGIPARFSGSGSGTEFTLTISSLQSEDFAVYYCQQYFHFPLTFGGGTKVEIK
notes: Human IgG
B3: F01 (antibody, human IgG1, kappa, V domains shown)
VH: B1 VH with E30K, G55P
VL: B1 VL
notes: Human IgG
B4: E01 (antibody, human IgG1, kappa, V domains shown)
VH: B1 VH with E30G
VL: B1 VL
notes: Human IgG
B5: A01 (antibody, human IgG1, kappa, V domains shown)
VH: B1 VH with V2L, Q16E, E30S, G32S, G33S, Y35A, S37G, H42P, G52S, G55Y
VL: B1 VL
notes: Human IgG from yeast libraries; also called A01 Parent; A01 (naïve parent)
B6: C01 (antibody, human IgG1, kappa, V domains shown)
VH: B1 VH with E30S, Y35F, G55Y, S58R
VL: B1 VL
notes: Human IgG
B7: D02 (antibody, human IgG1, V domains shown)
VH: QVQLVQSGAEVKKPGASVKVSCKASGYTFTSYRMHWVRQAPGQGLEWMGFIVPSGGSTSYAQKFQGRVTMTRDTSTSTVYMELSSLRSEDTAVYYCARVSMYAPEPMDVWGQGTTVTVSS
VL: DIQMTQSPSSVSASVGDRVTITCRASQGISRWLAWYQQKPGKAPKLLIYAASSLQSGVPSRFSGSGSGTDFTLTISSLQPEDFATYYCQQAFSHPWTFGGGTKVEIK
notes: Human IgG
B8: B02 (antibody, human IgG1, V domains shown)
VH: QVQLVQSGAEVKKPGASVKVSCKASGYTFTGHKMHWVRQAPGQGLEWMGWINPASGWTNYAQKFQGRVTMTRDTSISTAYMELSRLRSDDTAVYYCARVSMYAPEPMDVWGQGTTVTVSS
VL: B7 VL
notes: Human IgG
B9: A02 (antibody, human IgG1, V domains shown)
VH: QVQLVQSGAEVKKPGASVKVSCKASGYTFTSYGISWVRQAPGQGLEWMGWISPYNGNTNYAQKLQGRVTMTTDTSTSTAYMELRSLRSDDTAVYYCARVSMYAPEPMDVWGQGTTVTVSS
VL: B7 VL
notes: Human IgG; also called A02 Parent
B10: C02 (antibody, human IgG1, V domains shown)
VH: B7 VH with R33N, H35A, F50I, V52R, G55V
VL: B7 VL
notes: Human IgG
B11: D03 (antibody, human IgG1)
heavy: not shown
light: B7 VL
notes: Human IgG
B12: G01 (antibody, human IgG1, kappa, V domains shown)
VH: QLQLQESGPGLVKPSETLSLTCTVSGGSISSSSYAWGWIRQPPGKGLEWIGSIYYSGSTYYNPSLKSRVTISVDTSKNQFSLKLSSVTAADTAVYYCARAGKYRWHGMDVWGQGTTVTVSS
VL: DIQMTQSPSSVSASVGDRVTITCRASQGISSWLAWYQQKPGKAPKLLIYAASNLQSGVPSRFSGSGSGTDFTLTISSLQPEDFATYYCQQAPDLPITFGGGTKVEIKR
notes: Human IgG; also called G01 Parent; G01 (naïve parent)

Target: T1, monomeric hActRIIB
Assay: SPR (Biacore), 37 C, mAb captured on anti-hFc chip, receptor injected, 1:1 fit
Description: (§1) Kinetic characterization of A01 antibody lineage (A01 (naïve parent), B01, C01, D01, E01 and F01) binding to monomeric and dimeric hActRIIB and hActRIIA was performed using standard BIACORE®-based analysis at 37° C. In brief, antibodies were captured on anti-hFcIgG Biacore chips and different concentrations of dimeric and monomeric ActRIIB or ActRIIA were injected in duplicates over the captured antibody and control surface. To obtain kinetic rate constants the data were double referenced and fit to a 1:1 interaction model using BiaEvaluation software (GE Healthcare). The equilibrium binding constant KD was determined by the ratio of binding rate constants kd/kₐ

With B1 as the binder, how does the Kd read?
Its Kd is 2.19 nM.

What about the koff of the same binder?
The koff was 0.00354 s⁻¹.

And the kon?
The kon was 1.61e+06 M⁻¹ s⁻¹.

For B2, which Kd is on record?
The Kd was 3.64 nM.

And the koff?
The koff was 0.0034 s⁻¹.

What about the kon of the same binder?
Its kon is 1.09e+06 M⁻¹ s⁻¹.

Which Kd does the source give for B3 here?
The Kd was 3.32 nM.

And the koff?
Its koff is 0.00444 s⁻¹.

And the kon?
The kon was 1.34e+06 M⁻¹ s⁻¹.

How did the Kd turn out when B4 was run?
Its Kd is 2.45 nM.

What about the koff of the same binder?
The koff was 0.00415 s⁻¹.

What about the kon of the same binder?
The kon was 1.7e+06 M⁻¹ s⁻¹.

What does the source list for B5?
Kd: 1150 nM; koff: 0.198 s⁻¹; kon: 172000 M⁻¹ s⁻¹

B6 was tested. Which Kd did it give?
Its Kd is 5.22 nM.

And the koff?
Its koff is 0.00712 s⁻¹.

And the kon?
Its kon is 1.37e+06 M⁻¹ s⁻¹.

Target: T2, dimeric hActRIIB
Assay: as above
Description: as §1

How did the Kd turn out when B1 was run?
The Kd was 0.302 nM.

What about the koff of the same binder?
The koff was 0.00025 s⁻¹.

What about the kon of the same binder?
The kon was 828000 M⁻¹ s⁻¹.

What does the source list for B2?
Kd: 0.393 nM; koff: 0.000246 s⁻¹; kon: 626000 M⁻¹ s⁻¹

Which Kd does the source give for B3 here?
The Kd was 0.36 nM.

And the koff?
Its koff is 0.000216 s⁻¹.

And the kon?
The kon was 601000 M⁻¹ s⁻¹.

Which Kd does the source give for B4 here?
Its Kd is 0.376 nM.

What about the koff of the same binder?
Its koff is 0.000292 s⁻¹.

What about the kon of the same binder?
Its kon is 777000 M⁻¹ s⁻¹.

For B5, which Kd is on record?
Its Kd is 1.21 nM.

What about the koff of the same binder?
Its koff is 0.000128 s⁻¹.

What about the kon of the same binder?
Its kon is 106000 M⁻¹ s⁻¹.

B6 was tested. Which Kd did it give?
Its Kd is 0.236 nM.

What about the koff of the same binder?
The koff was 0.000188 s⁻¹.

And the kon?
Its kon is 797000 M⁻¹ s⁻¹.

Target: T1, monomeric hActRIIB
Assay: SPR (Biacore), 37 C

What does the source list for B7?
Kd: 0.65 nM; koff: 0.000291 s⁻¹; kon: 447000 M⁻¹ s⁻¹

B8 was tested. Which Kd did it give?
Its Kd is 1.1 nM.

And the koff?
Its koff is 0.001 s⁻¹.

And the kon?
Its kon is 905000 M⁻¹ s⁻¹.

For B9, which Kd is on record?
The Kd was 22 nM.

And the koff?
The koff was 0.0662 s⁻¹.

And the kon?
The kon was 3.02e+06 M⁻¹ s⁻¹.

How did the Kd turn out when B10 was run?
The Kd was 0.528 nM.

And the koff?
The koff was 0.000515 s⁻¹.

And the kon?
The kon was 975000 M⁻¹ s⁻¹.

How did the Kd turn out when B11 was run?
The Kd was 0.194 nM.

And the koff?
Its koff is 0.000203 s⁻¹.

And the kon?
The kon was 1.05e+06 M⁻¹ s⁻¹.

Target: T3, monomeric hActRIIA (human, UniProt P27037 21-138, limits assumed)
T3 construct: also called ActRIIA MONOMER; ActRIIA monomer
T3 sequence (P27037 21-138 limits assumed): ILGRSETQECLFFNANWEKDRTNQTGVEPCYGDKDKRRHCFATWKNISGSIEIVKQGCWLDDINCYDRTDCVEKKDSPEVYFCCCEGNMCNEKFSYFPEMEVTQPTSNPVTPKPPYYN
Assay: SPR (Biacore), 37 C

For B7, which Kd is on record?
Its Kd is 18.6 nM.

And the koff?
Its koff is 0.00684 s⁻¹.

What about the kon of the same binder?
The kon was 369000 M⁻¹ s⁻¹.

For B8, which Kd is on record?
Its Kd is 8.13 nM.

And the koff?
Its koff is 0.00593 s⁻¹.

And the kon?
Its kon is 729000 M⁻¹ s⁻¹.

With B10 as the binder, how does the Kd read?
The Kd was 26.4 nM.

Target: T4, dimeric hActRIIA (human, UniProt P27037 21-138)
T4 construct: also called ActRIIA DIMER; ActRIIA dimer
T4 sequence (P27037 21-138): as the sequence (P27037 21-138 limits assumed) above
Assay: SPR (Biacore), 37 C

What does the source list for B7?
Kd: 0.316 nM; koff: 0.000106 s⁻¹; kon: 336000 M⁻¹ s⁻¹

How did the Kd turn out when B8 was run?
The Kd was 0.338 nM.

And the koff?
The koff was 0.000167 s⁻¹.

What about the kon of the same binder?
Its kon is 495000 M⁻¹ s⁻¹.

B9 was tested. Which Kd did it give?
The Kd was 1.78 nM.

What about the koff of the same binder?
Its koff is 0.000627 s⁻¹.

What about the kon of the same binder?
Its kon is 353000 M⁻¹ s⁻¹.

What does the source list for B10?
Kd: 0.153 nM; koff: 8.02e-05 s⁻¹; kon: 524000 M⁻¹ s⁻¹

Target: T2, dimeric hActRIIB
Assay: SPR (Biacore), 37 C

Which results are given for B7?
Kd: 0.727 nM; koff: 0.000123 s⁻¹; kon: 170000 M⁻¹ s⁻¹

What does the source list for B8?
Kd: 0.649 nM; koff: 0.00021 s⁻¹; kon: 323000 M⁻¹ s⁻¹

Which results are given for B9?
Kd: 0.511 nM; koff: 0.000112 s⁻¹; kon: 219000 M⁻¹ s⁻¹

Which results are given for B10?
Kd: 0.333 nM; koff: 9.64e-05 s⁻¹; kon: 289000 M⁻¹ s⁻¹

How did the Kd turn out when B11 was run?
Its Kd is 0.0226 nM.

And the koff?
Its koff is 1.04e-05 s⁻¹.

And the kon?
The kon was 459000 M⁻¹ s⁻¹.

Target: T3, monomeric hActRIIA
Assay: SPR (BIACORE), 37 C, series of concentrations (not printed on the sheet)

Does B12 bind?
Result: no binding

Target: T1, monomeric hActRIIB
Assay: SPR (Biacore), 37 C
Remark: another data set of the same source

For B12, which Kd is on record?
The Kd was 16.8 nM.

What about the koff of the same binder?
The koff was 0.0152 s⁻¹.

And the kon?
Its kon is 905000 M⁻¹ s⁻¹.

Target: T2, dimeric hActRIIB
Assay: SPR (Biacore), 37 C
Remark: another data set of the same source

Which results are given for B12?
Kd: 1.14 nM; koff: 0.00022 s⁻¹; kon: 176000 M⁻¹ s⁻¹

Target: T3, monomeric hActRIIA
Assay: SPR (BIACORE), 37 C, series of concentrations (not printed on the sheet)
Remark: another data set of the same source
Description: (§2) FIGS. 1A-1N depict kinetic characterization of A01 lineage antibodies binding to hActRIIB and hActRIIA as determined by BIACORE®-based analysis at 37° C. Monomeric or dimeric hActRIIB or hActRIIA was […]. FIGS. 1A-1D depict characterization of antibody A01 (parent) binding to ActRIIB monomer (FIG. 1A), ActRIIB dimer (FIG. 1B), ActRIIA monomer (FIG. 1C), and ActRIIA dimer (FIG. 1D). FIGS. 1E and 1F depict characterization of antibody B01 binding to ActRIIB monomer (FIG. 1E) and ActRIIB dimer (FIG. 1F). FIGS. 1G-1H depict antibody C01 binding to ActRIIB monomer (FIG. 1G) and ActRIIB dimer (FIG. 1H). FIGS. 1I-1J depict antibody D01 binding to ActRIIB monomer (FIG. 1I) and ActRIIB dimer (FIG. 1J). FIGS. 1K-1L depict antibody E01 binding to ActRIIB monomer (FIG. 1K) and ActRIIB dimer (FIG. 1L). FIGS. 1M-1N depict antibody F01 binding to ActRIIB monomer (FIG. 1M) and ActRIIB dimer (FIG. 1N).
(§3) Kinetic characterization of A01 antibody lineage (A01 (naïve parent), B01, C01, D01, E01 and F01) binding to monomeric and dimeric hActRIIB and hActRIIA was performed using standard BIACORE®-based analysis at 37° C. […] The equilibrium binding constant KD was determined by the ratio of binding rate constants kd/kₐ

Does B5 bind?
Result: no binding

Target: T4, dimeric hActRIIA
Assay: as above
Description: as §2, §3

Does B5 bind?
Result: no binding

Target: T3, monomeric hActRIIA
Assay: SPR (Biacore), 37 C, mAb captured on anti-hFc chip, receptor injected
Description: as §1

Does B1 bind?
Result: no binding

Does B2 bind?
Result: no binding

Does B3 bind?
Result: no binding

Does B4 bind?
Result: no binding

Does B6 bind?
Result: no binding

Target: T4, dimeric hActRIIA
Assay: as above
Description: as §1

Does B1 bind?
Result: no binding

Does B2 bind?
Result: no binding

Does B3 bind?
Result: no binding

Does B4 bind?
Result: no binding

Does B6 bind?
Result: no binding

Target: T4, dimeric hActRIIA
Assay: SPR (BIACORE), 37 C, series of concentrations (not printed on the sheet)
Remark: another data set of the same source

Does B12 bind?
Result: no binding
